Data reported in US20210061891A1 (DUKE UNIVERSITY, published 2021).
Ends that are not written are not given here.

T1: residue mutated to A: D (6th column) (also: biotinylated, attachment site not given here)
T1 construct: position from the legend (CFH1114-1121)
T1 peptide: GPPPPIDNGAITSFP

T2: residue mutated to A: D (3rd column) (also: biotinylated, attachment site not given here)
T2 construct: position from the legend (CFH1114-1121)
T2 peptide: GPPPPIANGDITSFP

T3: residue mutated to A: G (also: biotinylated, attachment site not given here)
T3 construct: position from the legend (CFH1114-1121)
T3 peptide: GPPPPIDNADITSFP

T4: residue mutated to A: P (also: biotinylated, attachment site not given here)
T4 construct: position from the legend (CFH1114-1121)
T4 peptide: GPPPAIDNGDITSFP

T5: residue mutated to A: T (also: biotinylated, attachment site not given here)
T5 construct: position from the legend (CFH1114-1121)
T5 peptide: GPPPPIDNGDIASFP

T6: residue mutated to A: N (also: biotinylated, attachment site not given here)
T6 construct: position from the legend (CFH1114-1121)
T6 peptide: GPPPPIDAGDITSFP

T7: residue mutated to A: I (also: biotinylated, attachment site not given here)
T7 construct: position from the legend (CFH1114-1121)
T7 peptide: GPPPPADNGDITSFP


Columns and labels:
residue mutated to A: D [1] = biological target: T1, residue mutated to A: D; test: ELISA on streptavidin-immobilized biotinylated 15mer peptides; area under the signal vs antibody concentration curve;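 further: antibody binding to each alanine-substituted peptide expressed relative to binding to the natural peptide, using curve area determined separately for every peptide-antibody pair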
residue mutated to A: D [2] = biological target: T2, residue mutated to A: D; test: as above
residue mutated to A: G = biological target: T3, residue mutated to A: G; test: as above
residue mutated to A: P = biological target: T4, residue mutated to A: P; test: as above
residue mutated to A: T = biological target: T5, residue mutated to A: T; test: as above
residue mutated to A: N = biological target: T6, residue mutated to A: N; test: as above
residue mutated to A: I = biological target: T7, residue mutated to A: I; test: as above
[3] = biological target: T8, native Complement Factor H (CFH) (human, UniProt P08603 19-1231); test: immunoblot (Surf-Blot), CFH treated with Tris-HCl (oxidized) before electrophoresis; anti-human IgG-HRP
T8 construct: Native, non-reduced CFH; also called native CFH; full-length native CFH

[4] = biological target: T9, reduced Complement Factor H (CFH treated with TCEP) (human, UniProt P08603 19-1231, disulfide bonds reduced with TCEP); test: immunoblot (Surf-Blot), CFH treated with TCEP (reduced) before electrophoresis; anti-human IgG-HRP
T9 construct: also called reduced CFH; conformationally distinct form of CFH
T9 sequence (P08603 19-1231 limits assumed): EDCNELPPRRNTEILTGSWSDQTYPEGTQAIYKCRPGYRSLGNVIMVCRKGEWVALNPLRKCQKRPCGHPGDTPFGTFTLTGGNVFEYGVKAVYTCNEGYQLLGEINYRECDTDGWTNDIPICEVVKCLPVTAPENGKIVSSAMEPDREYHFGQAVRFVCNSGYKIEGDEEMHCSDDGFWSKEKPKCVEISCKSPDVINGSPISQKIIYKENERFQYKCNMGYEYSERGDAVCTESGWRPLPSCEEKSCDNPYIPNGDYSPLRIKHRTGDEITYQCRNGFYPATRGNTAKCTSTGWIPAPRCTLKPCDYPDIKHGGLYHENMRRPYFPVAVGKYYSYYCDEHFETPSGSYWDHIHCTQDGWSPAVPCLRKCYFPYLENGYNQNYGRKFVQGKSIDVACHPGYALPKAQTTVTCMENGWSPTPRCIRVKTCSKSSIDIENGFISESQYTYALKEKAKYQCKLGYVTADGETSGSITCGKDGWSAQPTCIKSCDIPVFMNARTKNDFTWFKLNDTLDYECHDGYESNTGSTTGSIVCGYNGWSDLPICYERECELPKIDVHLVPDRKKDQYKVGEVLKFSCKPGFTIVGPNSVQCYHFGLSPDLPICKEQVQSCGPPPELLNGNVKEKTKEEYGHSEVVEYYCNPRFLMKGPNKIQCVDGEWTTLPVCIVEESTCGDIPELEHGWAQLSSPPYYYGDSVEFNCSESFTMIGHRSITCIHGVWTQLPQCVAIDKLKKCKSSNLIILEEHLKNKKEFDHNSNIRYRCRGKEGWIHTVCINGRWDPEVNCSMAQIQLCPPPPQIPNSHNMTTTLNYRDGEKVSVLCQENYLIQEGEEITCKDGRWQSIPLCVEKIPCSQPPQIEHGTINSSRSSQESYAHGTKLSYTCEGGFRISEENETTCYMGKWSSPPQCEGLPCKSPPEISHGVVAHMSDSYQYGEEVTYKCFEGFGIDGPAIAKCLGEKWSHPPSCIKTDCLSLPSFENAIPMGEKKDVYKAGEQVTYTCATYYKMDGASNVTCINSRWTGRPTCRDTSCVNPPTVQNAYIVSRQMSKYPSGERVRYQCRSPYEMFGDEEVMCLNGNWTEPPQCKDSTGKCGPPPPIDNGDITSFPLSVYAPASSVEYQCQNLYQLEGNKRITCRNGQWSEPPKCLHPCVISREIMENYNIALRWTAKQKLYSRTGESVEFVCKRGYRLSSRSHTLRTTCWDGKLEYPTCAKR

T8 sequence (P08603 19-1231 limits assumed): as above

Row | percent of binding to the natural peptide (AUC) (residue mutated to A: D [1]) [%] | percent of binding to the natural peptide (AUC) (residue mutated to A: D [2]) [%] | percent of binding to the natural peptide (AUC) (residue mutated to A: G) [%] | percent of binding to the natural peptide (AUC) (residue mutated to A: P) [%] | percent of binding to the natural peptide (AUC) (residue mutated to A: T) [%] | percent of binding to the natural peptide (AUC) (residue mutated to A: N) [%] | percent of binding to the natural peptide (AUC) (residue mutated to A: I) [%] | binding result [3] | binding result [4] | Binder
1 | 103 | 81 | 104 | 52 | – | – | – | – | – | Ab7955 (antibody, V domains shown, Recombinant human mAb) VH: LVESGGGVVRPGRSLRLSCVASGFTFNAYGMHWVRQGPGKGLEWLAVISYEGKTVYYADSVKDRFTISRDNSRNTVSLHLNNLRGEDTAVYYCAKGSASAAVLQHWGQGTLVSVTS VL: MTQSPGSLAVSLGSRATINCKSSRSLLYRSNNKNYLAWYQQKPGQSPRLLIYWASSRESGVPDRFSGGGSGTSFTLTISSLQAEDVAVYYCQQYFNPPWTFGQGTKVEIK
2 | 102 | 100 | 99 | 61 | 48 | 30 | 61 | binds | binds | Ab7957/293i (antibody, V domains shown, Recombinant human mAb) VH: LVESGGGVVPPGKSLRLSCAASGFTFSLYGIHWVRQAPGKGLEWVAVISYDGNTKYYTDSVKGRFTISRDNAKNTIYLQMNSLRLDDTAVYYCAKGAANSATFDFWGRGTMVTVSS VL: MTQSPDSLTLSLGERATINCRSSRTVLYRSNNKNYLAWYQHKPGQPPKLLMSWASTRETGVPDRFSGSGSGTHFTLTITSLQPEDVAVYYCQQYYSPPWTFGQGTKVEIR
3 | 105 | 100 | 104 | 56 | 16 | – | 52 | binds | binds | Ab7961/293i (antibody, V domains shown, Recombinant human mAb) VH: LVESGGGVVQPGKSLRLSCVASGFTFSSYGMHWVRQAPGKGLEWVAVMSFDGKTKYYADSVKGRFTISRDNPKNTLYLQMNSLRSEDTAVYYCAKGGAAAAVFDSWGQGILLTVSS VL: MTQSPNSLAVSLGGRATINCKTSQSILYRSNNKNYLAWYQHKSGQPPKLLIYWASTRESGVPDRFSGSGSRTDFTLTISGLQAEDVAVYYCQQYYNPPWTFGQGTKVEIK
4 | 98 | 96 | 102 | 64 | – | 29 | 61 | binds | binds | Ab7979 (antibody, V domains shown, Recombinant human mAb) VH: LVESGGGVVQPGKSLRLSCVASGFTFSTYGMHWVRQAPGKGLEWVAVMSFDGKTKYYADSVKGRFTISRDNPKNTLYLQMNSLRSEDTAVYYCAKGGAAAAVFDSWGQGILLTVSS VL: MTQSPNSLAVSLGGRATINCKTSQSILYRSNNKNYLAWYQHKPGQPPKLLIYWASTRESRVPDRFSGSGSRTDFTLTISGLQAEDVAVYYCQQYYNPPWTFGQGTKVEIK
5 | 99 | 95 | 99 | 53 | – | – | 43 | binds | binds | Ab7960/293i (antibody, V domains shown, Recombinant human mAb) VH: LVESGGGVVQPGKSLRLSCVASGFSFSTYGMHWVRQAPGKGLEWVAVMSFDGKTKYYADSVKGRFTISRDNPKNTLYLQMNSLRSEDTAVYYCAKGGAAAAVFDSWGPGILLTVSS VL: MTQSPNSLAVSLGGRATINCKASQSILYRSNNKNYLAWYQHKAGQPPKLLIYWASTRESGVPERFSGSGSRTDFTLTINGLQAEDVAVYYCQQYYNPPWTFGQGTKVEIK
6 | 101 | 102 | 100 | 73 | 54 | – | 73 | – | – | CFH mAb7968 (antibody, V domains shown, also called CBAb1) VH: LVESGGGVVQPGRSLRLSCAASGFTFSRYGMHWVRQAPGKGLEWVAVMSYDGSTKYYADSVKGRFAISRDNPKNTLFLQMNSLRPDDTAVYYCAKGGAAAAVMDVWGKGTTVTVSS VL: MTQSPDSLTVSLGERATISCKSSQRLLYSSNNKNYLAWYQQKPGQPPKLLMYWASTRESGVPDRFSGSGSGTDFSLTISSLQAEDVAVYYCQQYYNPPWTFGQGTKVEVK
7 | 102 | 100 | 100 | 74 | 66 | – | 76 | binds | binds | Ab7964 (antibody, V domains shown, Recombinant human mAb) VH: LVESGGGVVQPGRSLRLSCAASGVTFSRYGMHWVRQAPGKGLEWVAVISYDEKTKYYADSVKGRFTISRDNSKNTLFLHMNRLRYEDTAVYYCAKGASSGAYFDYWGQGTLVTVSS VL: not shown
